Results: the supplement of paper PMC9112550, “Optimization of the antimicrobial peptide Bac7 by deep mutational scanning” (BMC Biology, 2022)

Test system: Escherichia coli TOP10
Test: shrunken log2 fold change of peptide-encoding DNA abundance (4.5 h post-induction vs induction); higher = less antimicrobial activity (less host growth inhibition)
Settings: time post-induction: 4.5 h; library: site-saturation at positions 5, 18, 19, 20
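Note: peptides expressed intracellularly from a pBAD plasmid library in pooled LB shake-flask culture, induced with 0.3% L-arabinose, DNA abundance read by NGS, three biological replicates, DESeq2 with apeglm shrinkage.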

Row | Sequence | shrunken log2 fold change
1 | RRIRFRPPRLPRPRPRPQKWPRP | -0.0281
2 | RRIRQRPPRLPRPRPRPWATPRP | 0.136
3 | RRIRVRPPRLPRPRPRPKDMPRP | -0.272
4 | RRIRQRPPRLPRPRPRPWYMPRP | -0.237
5 | RRIRRRPPRLPRPRPRPEMYPRP | 0.0119
6 | RRIRNRPPRLPRPRPRPLILPRP | -0.303
7 | RRIRGRPPRLPRPRPRPVCIPRP | 0.344
8 | RRIRGRPPRLPRPRPRPTNEPRP | 0.46
9 | RRIRRRPPRLPRPRPRPLNFPRP | -0.115
10 | RRIRWRPPRLPRPRPRPCFDPRP | 0.172
11 | RRIRTRPPRLPRPRPRPPCMPRP | 0.0978
12 | RRIRNRPPRLPRPRPRPERVPRP | 0.11
13 | RRIRDRPPRLPRPRPRPYLVPRP | -0.506
14 | RRIRARPPRLPRPRPRPRYEPRP | 0.0403
15 | RRIRTRPPRLPRPRPRPLSYPRP | -0.155
16 | RRIRPRPPRLPRPRPRPKPDPRP | 0.0452
17 | RRIRRRPPRLPRPRPRPMDCPRP | 0.00462
18 | RRIRFRPPRLPRPRPRPLSSPRP | -0.307
19 | RRIRSRPPRLPRPRPRPSPRPRP | 0.217
20 | RRIRPRPPRLPRPRPRPNQMPRP | -0.129
21 | RRIRGRPPRLPRPRPRPANGPRP | 0.378
22 | RRIRHRPPRLPRPRPRPKCVPRP | -0.069
23 | RRIRRRPPRLPRPRPRPGFRPRP | 0.331
24 | RRIRKRPPRLPRPRPRPYDCPRP | -0.171
25 | RRIRWRPPRLPRPRPRPSDRPRP | -0.0684

Row | Sequence | shrunken log2 fold change
26 | RRIRARPPRLPRPRPRPISSPRP | -0.102
27 | RRIRDRPPRLPRPRPRPAKYPRP | -0.315
28 | RRIRHRPPRLPRPRPRPLNKPRP | -0.677
29 | RRIRNRPPRLPRPRPRPPVFPRP | 0.15
30 | RRIRWRPPRLPRPRPRPRGMPRP | 0.313
31 | RRIRMRPPRLPRPRPRPEQNPRP | 2.47
32 | RRIRPRPPRLPRPRPRPHQVPRP | 0.341
33 | RRIRWRPPRLPRPRPRPQQCPRP | 0.112
34 | RRIRYRPPRLPRPRPRPLARPRP | -0.265
35 | RRIRYRPPRLPRPRPRPRMNPRP | 0.0193
36 | RRIRNRPPRLPRPRPRPTCQPRP | 0.0956
37 | RRIRGRPPRLPRPRPRPDDFPRP | 0.0116
38 | RRIRSRPPRLPRPRPRPRFGPRP | 0.342
39 | RRIRRRPPRLPRPRPRPTHAPRP | 1.13
40 | RRIRARPPRLPRPRPRPPNQPRP | 0.691
41 | RRIRERPPRLPRPRPRPHNFPRP | 0.0533
42 | RRIRQRPPRLPRPRPRPFTHPRP | -0.0618
43 | RRIRRRPPRLPRPRPRPQHQPRP | 0.246
44 | RRIRGRPPRLPRPRPRPKSGPRP | 0.707
45 | RRIRNRPPRLPRPRPRPALWPRP | -0.15
46 | RRIRERPPRLPRPRPRPKYHPRP | -0.57
47 | RRIRQRPPRLPRPRPRPRSNPRP | -0.108
48 | RRIRTRPPRLPRPRPRPSEMPRP | -0.00622
49 | RRIRRRPPRLPRPRPRPPWIPRP | 0.365
50 | RRIRVRPPRLPRPRPRPLLFPRP | -0.141

Row | Sequence | shrunken log2 fold change
51 | RRIRPRPPRLPRPRPRPWEGPRP | 0.0632
52 | RRIRTRPPRLPRPRPRPVDHPRP | -0.216
53 | RRIRCRPPRLPRPRPRPWFYPRP | -0.758
54 | RRIRLRPPRLPRPRPRPIRTPRP | 0.0758
55 | RRIRQRPPRLPRPRPRPSWAPRP | -0.0374
56 | RRIRMRPPRLPRPRPRPLWMPRP | 0.0202
57 | RRIRGRPPRLPRPRPRPFCIPRP | 0.494
58 | RRIRARPPRLPRPRPRPRNQPRP | -0.012
59 | RRIRARPPRLPRPRPRPREGPRP | 1.1
60 | RRIRRRPPRLPRPRPRPVEKPRP | -0.00451
61 | RRIRERPPRLPRPRPRPQWEPRP | -0.0702
62 | RRIRFRPPRLPRPRPRPWTGPRP | -0.00822
63 | RRIRERPPRLPRPRPRPEIIPRP | 0.0655
64 | RRIRHRPPRLPRPRPRPEVSPRP | -0.0122
65 | RRIRMRPPRLPRPRPRPDTEPRP | 0.33
66 | RRIRRRPPRLPRPRPRPTAHPRP | 1.51
67 | RRIRQRPPRLPRPRPRPCRGPRP | 0.104
68 | RRIRQRPPRLPRPRPRPMDFPRP | 0.015
69 | RRIRCRPPRLPRPRPRPWRLPRP | 0.0337
70 | RRIRKRPPRLPRPRPRPGWYPRP | -0.0717
71 | RRIRPRPPRLPRPRPRPINPPRP | -0.714
72 | RRIRHRPPRLPRPRPRPPWWPRP | 0.18
73 | RRIRFRPPRLPRPRPRPSNVPRP | -0.989
74 | RRIRPRPPRLPRPRPRPQTCPRP | 0.111
75 | RRIRGRPPRLPRPRPRPDHPPRP | -0.0241

Row | Sequence | shrunken log2 fold change
76 | RRIRYRPPRLPRPRPRPAHVPRP | -0.144
77 | RRIRRRPPRLPRPRPRPYFNPRP | -0.2
78 | RRIRARPPRLPRPRPRPIHLPRP | -0.633
79 | RRIRLRPPRLPRPRPRPYLQPRP | -0.0746
80 | RRIRCRPPRLPRPRPRPKPRPRP | 0.749
81 | RRIRQRPPRLPRPRPRPAKWPRP | -0.0192
82 | RRIRDRPPRLPRPRPRPLGKPRP | 0.188
83 | RRIRSRPPRLPRPRPRPSPFPRP | -0.191
84 | RRIRSRPPRLPRPRPRPTLFPRP | 0.206
85 | RRIRSRPPRLPRPRPRPHCQPRP | -0.159
86 | RRIRPRPPRLPRPRPRPGTVPRP | -0.182
87 | RRIRGRPPRLPRPRPRPIYWPRP | 0.247
88 | RRIRFRPPRLPRPRPRPIGNPRP | -0.501
89 | RRIRRRPPRLPRPRPRPGDSPRP | 0.269
90 | RRIRSRPPRLPRPRPRPGQLPRP | -0.17
91 | RRIRERPPRLPRPRPRPTIEPRP | -0.0577
92 | RRIRVRPPRLPRPRPRPQTIPRP | -0.127
93 | RRIRDRPPRLPRPRPRPNFNPRP | -0.307
94 | RRIRCRPPRLPRPRPRPANPPRP | -0.057
95 | RRIRMRPPRLPRPRPRPMRWPRP | 0.539
96 | RRIRIRPPRLPRPRPRPPLAPRP | 0.293
97 | RRIRPRPPRLPRPRPRPMRTPRP | 0.357
98 | RRIRHRPPRLPRPRPRPPEMPRP | 0.484
99 | RRIRARPPRLPRPRPRPHACPRP | 0.066
100 | RRIRLRPPRLPRPRPRPQAVPRP | 0.0328

Row | Sequence | shrunken log2 fold change
101 | RRIRMRPPRLPRPRPRPQFGPRP | 0.104
102 | RRIRTRPPRLPRPRPRPIMFPRP | -0.937
103 | RRIRWRPPRLPRPRPRPNHWPRP | -0.0748
104 | RRIRTRPPRLPRPRPRPLPYPRP | -0.0545
105 | RRIRWRPPRLPRPRPRPWIVPRP | -0.337
106 | RRIRMRPPRLPRPRPRPNSNPRP | -0.177
107 | RRIRNRPPRLPRPRPRPYFDPRP | -0.0504
108 | RRIRSRPPRLPRPRPRPGVDPRP | 0.334
109 | RRIRGRPPRLPRPRPRPRIFPRP | 0.804
110 | RRIRERPPRLPRPRPRPCAQPRP | -0.00638
111 | RRIRVRPPRLPRPRPRPRITPRP | -0.11
112 | RRIRLRPPRLPRPRPRPYFHPRP | -1.08
113 | RRIRERPPRLPRPRPRPMTQPRP | 0.00826
114 | RRIRCRPPRLPRPRPRPTHQPRP | 0.476
115 | RRIRDRPPRLPRPRPRPGFVPRP | 0.0977
116 | RRIRTRPPRLPRPRPRPQDIPRP | -0.0501
117 | RRIRCRPPRLPRPRPRPYDTPRP | -0.308
118 | RRIRLRPPRLPRPRPRPGAIPRP | 0.0769
119 | RRIRMRPPRLPRPRPRPRYDPRP | 0.185
120 | RRIRYRPPRLPRPRPRPCGQPRP | -0.0335
121 | RRIRGRPPRLPRPRPRPRYPPRP | 0.232
122 | RRIRYRPPRLPRPRPRPECMPRP | -0.417
123 | RRIRKRPPRLPRPRPRPTYLPRP | -0.201
124 | RRIRNRPPRLPRPRPRPLCGPRP | -0.13
125 | RRIRVRPPRLPRPRPRPWRIPRP | -0.00931
